Biological target: Lon protease of E. coli (endogenous) (E. coli) (UniProt P0A9M0)
Experiment: cell-based or functional assay

Chain of UniProt P0A9M0 (P0A9M0 2-784 limits assumed): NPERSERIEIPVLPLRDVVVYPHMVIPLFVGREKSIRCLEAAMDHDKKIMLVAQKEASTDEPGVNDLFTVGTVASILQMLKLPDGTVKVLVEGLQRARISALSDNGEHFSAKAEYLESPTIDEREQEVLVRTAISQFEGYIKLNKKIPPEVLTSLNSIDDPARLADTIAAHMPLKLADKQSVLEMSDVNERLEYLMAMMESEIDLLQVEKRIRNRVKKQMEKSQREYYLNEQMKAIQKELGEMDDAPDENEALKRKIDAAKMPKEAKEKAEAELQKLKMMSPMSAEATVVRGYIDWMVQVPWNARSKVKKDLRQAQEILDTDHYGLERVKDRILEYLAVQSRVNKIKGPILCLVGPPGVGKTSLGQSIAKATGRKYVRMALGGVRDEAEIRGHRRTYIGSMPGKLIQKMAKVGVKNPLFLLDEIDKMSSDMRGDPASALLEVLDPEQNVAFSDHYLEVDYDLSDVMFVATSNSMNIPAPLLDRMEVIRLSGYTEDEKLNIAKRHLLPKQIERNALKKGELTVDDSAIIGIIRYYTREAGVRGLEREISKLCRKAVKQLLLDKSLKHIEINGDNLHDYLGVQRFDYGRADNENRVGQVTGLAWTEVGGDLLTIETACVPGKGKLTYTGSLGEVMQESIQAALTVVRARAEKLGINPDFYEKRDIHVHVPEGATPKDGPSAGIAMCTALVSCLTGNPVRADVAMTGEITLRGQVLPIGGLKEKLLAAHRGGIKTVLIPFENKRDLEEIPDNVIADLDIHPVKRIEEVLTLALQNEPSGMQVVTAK

Work on “T7 phage gene product (Gp) 4.5 expressed in E. coli from a plasmid (peptide)” yielded a fold decrease in persistence: fraction of surviving E. coli cells following 5 hr exposure to ampicillin of 5 fold.

From patent publication US20140178353A1
